Legend:
furin [1] = target: T1, furin (Homo sapiens, UniProt P09958); conditions: Jean et al. 1998; cited from earlier work
T1 construct: purchased NEB

[2] = test system: SARS-CoV-2 spike pseudotyped lentivirus entry in HeLa cells expressing ACE2 only; assay type: cell-based; conditions: 10 µM
[3] = test system: IFNγ-mediated activation of human microglial HMC3-MHCII^Luc cells; test: IFNγ-mediated microglial activation, MHCII-driven luciferase; assay type: cell-based; conditions: MHCII-driven luciferase normalized to cell viability, FIG. 19
[4] = test system: ACE2/SARS-CoV-2 spike mediated cell fusion of HeLa cells; assay type: cell-based, human; conditions: 24 h
cathepsin B = target: T2, cathepsin B (Homo sapiens, UniProt P07858); assay type: biochemical; conditions: 45 min
T2 construct: purchased R&D Systems

cathepsin L = target: T3, cathepsin L (Homo sapiens, UniProt P07711); assay type: biochemical; conditions: 45 min
T3 construct: purchased R&D Systems

trypsin = assay type: biochemical; conditions: 45 min
furin [5] = target: T1, furin; assay type: biochemical; conditions: 45 min
PC1 = target: T4, PC1 (Homo sapiens, UniProt P29120); assay type: biochemical; conditions: 45 min
T4 construct: purchased R&D Systems
T4 sequence (P29120 111-753): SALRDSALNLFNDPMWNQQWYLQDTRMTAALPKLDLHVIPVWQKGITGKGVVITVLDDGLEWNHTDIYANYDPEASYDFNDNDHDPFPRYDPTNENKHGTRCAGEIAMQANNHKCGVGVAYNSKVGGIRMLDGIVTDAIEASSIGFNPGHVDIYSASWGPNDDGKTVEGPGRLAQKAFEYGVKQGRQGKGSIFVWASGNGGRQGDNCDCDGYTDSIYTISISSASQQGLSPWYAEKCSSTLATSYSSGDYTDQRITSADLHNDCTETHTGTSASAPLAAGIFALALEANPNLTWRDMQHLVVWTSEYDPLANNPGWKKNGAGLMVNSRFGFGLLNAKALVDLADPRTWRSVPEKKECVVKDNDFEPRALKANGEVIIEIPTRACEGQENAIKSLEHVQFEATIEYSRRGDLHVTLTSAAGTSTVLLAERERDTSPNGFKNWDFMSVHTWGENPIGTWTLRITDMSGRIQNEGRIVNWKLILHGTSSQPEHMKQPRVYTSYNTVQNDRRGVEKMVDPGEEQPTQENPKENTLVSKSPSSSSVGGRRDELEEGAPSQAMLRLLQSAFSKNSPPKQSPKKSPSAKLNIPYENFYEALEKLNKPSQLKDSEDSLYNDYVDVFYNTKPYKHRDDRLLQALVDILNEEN

matriptase = target: T5, matriptase (Homo sapiens, UniProt Q9Y5Y6); assay type: biochemical; conditions: 45 min
T5 construct: purchased R&D Systems
T5 sequence (Q9Y5Y6 1-855): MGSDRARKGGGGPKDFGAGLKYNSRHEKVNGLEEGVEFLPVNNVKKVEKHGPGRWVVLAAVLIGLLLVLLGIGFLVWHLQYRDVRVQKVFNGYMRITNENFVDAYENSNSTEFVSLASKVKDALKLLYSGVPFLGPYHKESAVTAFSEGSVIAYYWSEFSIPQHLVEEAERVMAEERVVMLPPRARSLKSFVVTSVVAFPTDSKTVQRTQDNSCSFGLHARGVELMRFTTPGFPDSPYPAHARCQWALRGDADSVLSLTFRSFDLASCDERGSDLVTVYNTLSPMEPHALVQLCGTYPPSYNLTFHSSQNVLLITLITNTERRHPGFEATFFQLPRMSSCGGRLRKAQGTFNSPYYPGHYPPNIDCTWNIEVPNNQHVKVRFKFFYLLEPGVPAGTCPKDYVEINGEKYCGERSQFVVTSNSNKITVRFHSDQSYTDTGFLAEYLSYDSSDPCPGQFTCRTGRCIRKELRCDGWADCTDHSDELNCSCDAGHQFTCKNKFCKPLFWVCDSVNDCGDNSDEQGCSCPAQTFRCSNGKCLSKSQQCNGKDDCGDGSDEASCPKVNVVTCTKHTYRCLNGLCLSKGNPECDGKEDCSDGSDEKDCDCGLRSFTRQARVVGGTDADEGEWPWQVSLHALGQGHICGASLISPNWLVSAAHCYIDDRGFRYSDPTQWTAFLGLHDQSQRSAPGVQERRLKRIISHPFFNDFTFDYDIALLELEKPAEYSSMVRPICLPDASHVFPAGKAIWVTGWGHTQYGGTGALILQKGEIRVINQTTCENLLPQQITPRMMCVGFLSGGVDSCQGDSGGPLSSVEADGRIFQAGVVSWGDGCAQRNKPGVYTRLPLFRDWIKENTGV

TMPRSS2 = target: T6, TMPRSS2 (Homo sapiens, UniProt O15393); assay type: biochemical; conditions: 45 min
T6 construct: purchased creative biomart

[6] = target: T7, elastase (ELA1) from pig pancreas (Sus scrofa, UniProt P00772); assay type: biochemical
T7 construct: elastase (ELA1) from pig pancreas 0.25U/mL; purchased molecular probes (Sigma-Aldrich) E-12056; host or cells: pig pancreas

[7] = test system: MERS-CoV pseudovirus entry in Caco2 human colorectal adenocarcinoma cells; assay type: cell-based

T1 sequence (P09958 108-794): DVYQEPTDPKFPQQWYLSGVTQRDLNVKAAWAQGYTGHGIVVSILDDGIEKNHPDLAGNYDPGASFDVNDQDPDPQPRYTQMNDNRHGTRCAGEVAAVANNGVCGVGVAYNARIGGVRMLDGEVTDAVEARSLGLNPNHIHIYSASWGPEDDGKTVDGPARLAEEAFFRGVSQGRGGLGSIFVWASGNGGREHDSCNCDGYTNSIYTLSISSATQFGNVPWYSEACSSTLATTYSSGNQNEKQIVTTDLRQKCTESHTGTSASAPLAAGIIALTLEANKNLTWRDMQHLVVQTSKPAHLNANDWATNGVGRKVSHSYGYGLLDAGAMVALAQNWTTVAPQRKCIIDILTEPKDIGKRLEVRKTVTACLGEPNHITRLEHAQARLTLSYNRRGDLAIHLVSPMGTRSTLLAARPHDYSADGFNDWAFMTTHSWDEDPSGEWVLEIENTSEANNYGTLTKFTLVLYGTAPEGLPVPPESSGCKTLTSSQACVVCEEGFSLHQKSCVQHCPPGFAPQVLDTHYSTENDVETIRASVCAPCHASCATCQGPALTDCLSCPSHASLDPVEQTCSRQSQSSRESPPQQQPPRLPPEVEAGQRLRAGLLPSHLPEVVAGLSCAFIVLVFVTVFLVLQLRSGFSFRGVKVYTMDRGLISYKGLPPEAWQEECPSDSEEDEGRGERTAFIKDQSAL
T7 sequence (P00772 27-266): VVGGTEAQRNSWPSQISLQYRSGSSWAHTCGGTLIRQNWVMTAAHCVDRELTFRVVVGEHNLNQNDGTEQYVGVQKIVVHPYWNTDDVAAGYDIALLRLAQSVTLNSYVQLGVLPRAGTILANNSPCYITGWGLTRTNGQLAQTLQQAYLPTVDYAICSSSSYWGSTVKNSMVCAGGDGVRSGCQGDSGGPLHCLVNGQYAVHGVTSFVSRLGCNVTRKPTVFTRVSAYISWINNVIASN
T6 sequence (O15393 whole entry): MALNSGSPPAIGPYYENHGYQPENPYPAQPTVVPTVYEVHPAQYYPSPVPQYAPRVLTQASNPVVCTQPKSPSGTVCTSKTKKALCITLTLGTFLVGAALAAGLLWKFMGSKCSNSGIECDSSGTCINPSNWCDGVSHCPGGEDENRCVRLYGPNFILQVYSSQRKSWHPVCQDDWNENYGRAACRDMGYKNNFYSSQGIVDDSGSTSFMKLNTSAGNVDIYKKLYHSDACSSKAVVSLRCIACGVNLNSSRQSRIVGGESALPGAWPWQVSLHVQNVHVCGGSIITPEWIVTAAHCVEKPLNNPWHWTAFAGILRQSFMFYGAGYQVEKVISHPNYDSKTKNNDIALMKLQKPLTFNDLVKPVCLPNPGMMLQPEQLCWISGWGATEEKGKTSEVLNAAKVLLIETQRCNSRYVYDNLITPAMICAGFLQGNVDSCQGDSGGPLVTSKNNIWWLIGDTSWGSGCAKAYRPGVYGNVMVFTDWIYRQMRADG
T3 sequence (P07711 114-333): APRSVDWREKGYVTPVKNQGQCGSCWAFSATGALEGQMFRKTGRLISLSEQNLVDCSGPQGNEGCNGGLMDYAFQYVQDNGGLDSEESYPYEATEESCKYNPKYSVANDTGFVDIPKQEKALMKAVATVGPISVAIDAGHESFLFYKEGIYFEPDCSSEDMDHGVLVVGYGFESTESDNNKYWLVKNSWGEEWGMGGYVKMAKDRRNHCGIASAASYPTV

Row | Substance | activity on furin (furin [1]) | inhibitory effect on SARS-CoV-2 pseudoviral cell-entry [2] | IFNγ-mediated microglial activation (inflammation) [3] | inhibitory effect on SARS-CoV-2 spike mediated cell fusion [4] | cathepsin B protease activity (cathepsin B) | cathepsin L protease activity (cathepsin L) | trypsin protease activity (trypsin) | furin protease activity (furin [5]) | PC1 protease activity (PC1) | matriptase protease activity (matriptase) | TMPRSS2 protease activity (TMPRSS2) | elastase protease activity [6] | IFNγ-mediated microglial activation (inflammation) ([3]; listed as recombinant AAT) | MERS-CoV pseudovirus entry [7]
1 | Alpha1-antitrypsin Portland | strong and selective activity | – | – | – | – | – | – | – | – | – | – | – | – | –
2 | plasma derived AAT | – | up to 25% | Effect is observed | – | – | – | – | – | – | – | – | – | – | –
3 | rhAAT | – | – | reduces inflammation | more effectively than plasma derived AAT | inhibits cathepsin B protease activity | inhibits cathepsin L protease activity | inhibits trypsin protease activity | inhibits furin protease activity | inhibits PC1 protease activity | inhibits matriptase protease activity | inhibits TMPRSS2 protease activity | inhibits elastase protease activity | Effect is observed | inhibits viral entry of several viruses

Source: patent publication US20230302104A1, “TREATMENT AND/OR PREVENTION OF A DISEASE OR A SYNDROME RELATED TO A VIRUS INFECTION” (priority 2020, published 2023)
